Measurements published in the supplement of paper PMC7877785.
± gives the uncertainty stated by the source.

Experiment: self-splicing fitness, log relative to wild type (ln ratio); higher = more splicing; Tetrahymena group I intron in knt gene, E. coli kanamycin selection, DiMSum; sequences stand for … in CUCUCU…GGAGGGAAAAGUUAUCAGGCAUGCACCUGGUAGCUAGUCUUUAAACCAAUAGAUUGCAUCGGUUUAAAAGGCAAGACCGUCAAAUUGCGGGAAAGGGGUCAACAGCCGUUCAGUACCAAGUCUCAGGGGAAACUUUGAGAUGGCCUUGCAAAGGGUAUGGUAAUAAGCUGACGGACAUGGUCCUAACCACGCAGCCAAGUCCUAAGUCAACAGAUCUUCUGUUGAUAUGGAUGCAGUUCACAGACUAAAUGUCGGUCGGGGAAGAUGUAUUCUUCUCAUAAGAUAUAGUCGGACCUCUCCUUAAUGGGAGCUAGCGGAUGAAGUGAUGCAACACUGGAGCCGCUGGGAACUAAUUUGUAUGCGAAAGUAUAUUGAUUAGUUUUGGAGUACUCGUGGUCG
In short: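 A randomised library covering all eight P1ex-region intron nucleotides was built with the intron in the knt kanamycin-resistance gene on pET-22b(+) and held in E. coli BL21(DE3). Cells were grown overnight at 37°C or 30°C on LB agar, with or without 25 μg/mL kanamycin, plus 100 μg/mL carbenicillin, 50 μM IPTG and 0.2% rhamnose, and pooled colonies were amplicon-sequenced on an Illumina HiSeq 2500. DiMSum fitness is the error-weighted combination of wild-type-normalised replicate fold changes, kanamycin versus none.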

Row | Sequence | self-splicing fitness (ln) (30 °C) | self-splicing fitness (ln) (37 °C)
1 | GCGCAGCAAUAUUACGAUUG | -2.57 ± 0.073 | -1.28 ± 0.1
2 | ACUCAGCAAUAUUACGCCGG | -0.85 ± 0.074 | -0.683 ± 0.092
3 | GCGUAGCAAUAUUACGGUAA | -1.02 ± 0.13 | -0.178 ± 0.1
4 | GGCCAGCAAUAUUACGCUGC | – | -1.67 ± 0.22
5 | CGCCAGCAAUAUUACGGUGU | -2.27 ± 0.12 | -2.84 ± 0.26
6 | CCUGAGCAAUAUUACGUGGC | -3.15 ± 0.24 | –
7 | UAAAAGCAAUAUUACGGUAA | -1.94 ± 0.14 | -0.97 ± 0.098
8 | AUUCAGCAAUAUUACGUGUG | -1.9 ± 0.062 | -0.699 ± 0.067
9 | AACCAGCAAUAUUACGACUG | -3.11 ± 0.15 | -1.83 ± 0.12
10 | CGGCAGCAAUAUUACGCUGC | -3.47 ± 0.32 | -1.5 ± 0.19
11 | UUUAAGCAAUAUUACGACCU | -1.72 ± 0.21 | -1.3 ± 0.18
12 | ACCAAGCAAUAUUACGAACA | -2.91 ± 0.16 | -0.543 ± 0.089
13 | ACAUAGCAAUAUUACGUGCC | -2.1 ± 0.15 | -0.986 ± 0.19
14 | CCUGAGCAAUAUUACGAGGC | -3.18 ± 0.43 | -1.54 ± 0.26
15 | AUUUAGCAAUAUUACGCUGG | -1.97 ± 0.27 | -1.4 ± 0.33
16 | UUAGAGCAAUAUUACGCUAC | -2.9 ± 0.41 | –
17 | GUGUAGCAAUAUUACGAGGA | -2.9 ± 0.44 | –
18 | GAUGAGCAAUAUUACGAGAG | – | -3.01 ± 0.29
19 | UGGUAGCAAUAUUACGACGU | -0.945 ± 0.12 | -0.0819 ± 0.16
20 | AGGUAGCAAUAUUACGUAGC | -2.916 ± 0.021 | -1.94 ± 0.036
21 | GAGUAGCAAUAUUACGACAU | -0.282 ± 0.014 | -0.127 ± 0.033
22 | UUCGAGCAAUAUUACGGCCU | -3.17 ± 0.33 | -2.84 ± 0.35
23 | AUCGAGCAAUAUUACGGUGA | -2.39 ± 0.12 | -2.25 ± 0.15
24 | UAGCAGCAAUAUUACGGUAU | -2.97 ± 0.092 | -2.41 ± 0.094
25 | GCCGAGCAAUAUUACGCAAC | -3.15 ± 0.29 | -2.07 ± 0.26

Row | Sequence | self-splicing fitness (ln) (30 °C) | self-splicing fitness (ln) (37 °C)
26 | CAAUAGCAAUAUUACGCGUU | -2.98 ± 0.09 | -2.42 ± 0.1
27 | ACUGAGCAAUAUUACGGCAC | -3.97 ± 0.37 | -2.6 ± 0.29
28 | UCGCAGCAAUAUUACGCGAA | -1.65 ± 0.23 | -2.45 ± 0.25
29 | AAGCAGCAAUAUUACGGCCA | -0.775 ± 0.18 | 0.116 ± 0.25
30 | UAGAAGCAAUAUUACGUAUC | -3.43 ± 0.28 | -2.01 ± 0.15
31 | GUGCAGCAAUAUUACGGGAU | -1.66 ± 0.066 | -1.32 ± 0.081
32 | GCGAAGCAAUAUUACGAUCA | -1.82 ± 0.34 | -1.01 ± 0.3
33 | CGCAAGCAAUAUUACGCGGA | -2.93 ± 0.28 | -2.41 ± 0.23
34 | CAGUAGCAAUAUUACGGCGA | -2.45 ± 0.26 | -1.9 ± 0.29
35 | GUAGAGCAAUAUUACGACGC | -0.313 ± 0.16 | 0.929 ± 0.22
36 | UACAAGCAAUAUUACGAACG | -0.239 ± 0.065 | -0.0708 ± 0.08
37 | CCCAAGCAAUAUUACGAGUU | -3.89 ± 0.14 | -2.68 ± 0.14
38 | CUAUAGCAAUAUUACGCCGC | – | -2.27 ± 0.41
39 | AUGCAGCAAUAUUACGUGAA | -2.44 ± 0.12 | -0.683 ± 0.13
40 | UAGUAGCAAUAUUACGUAUU | -4.59 ± 0.36 | -1.96 ± 0.2
41 | GAGCAGCAAUAUUACGCUGU | -3.32 ± 0.18 | -2.52 ± 0.19
42 | AUUGAGCAAUAUUACGAAGG | -2.69 ± 0.36 | -2.39 ± 0.3
43 | CUGUAGCAAUAUUACGAAGU | -2.13 ± 0.23 | -1.82 ± 0.27
44 | ACAGAGCAAUAUUACGGUCU | -3.77 ± 0.18 | -2.48 ± 0.15
45 | GACCAGCAAUAUUACGGCUG | -3.68 ± 0.18 | -3.41 ± 0.25
46 | UUGGAGCAAUAUUACGUAUU | -4.53 ± 0.39 | -1.7 ± 0.22
47 | CCAUAGCAAUAUUACGACUU | -2.46 ± 0.17 | -3.03 ± 0.32
48 | ACGUAGCAAUAUUACGCCAG | -1.59 ± 0.18 | -2.19 ± 0.45
49 | CCAUAGCAAUAUUACGUAGG | -2.29 ± 0.078 | -1.37 ± 0.094
50 | UCUGAGCAAUAUUACGGCGG | -0.492 ± 0.094 | -0.249 ± 0.14

Row | Sequence | self-splicing fitness (ln) (30 °C) | self-splicing fitness (ln) (37 °C)
51 | AAUCAGCAAUAUUACGCGAA | -0.0302 ± 0.071 | 0.278 ± 0.098
52 | AAAAAGCAAUAUUACGACAG | -1.17 ± 0.066 | -0.774 ± 0.088
53 | CACAAGCAAUAUUACGUAUC | -4.88 ± 0.25 | -2.19 ± 0.15
54 | UGCGAGCAAUAUUACGCGAA | -3.08 ± 0.19 | -2.19 ± 0.19
55 | UCCCAGCAAUAUUACGACCG | -3.22 ± 0.3 | -3.01 ± 0.31
56 | CCCGAGCAAUAUUACGUGUC | -5.12 ± 0.38 | -2.8 ± 0.19
57 | UACAAGCAAUAUUACGCGAU | -3.74 ± 0.32 | -1.3 ± 0.2
58 | GGCCAGCAAUAUUACGGGGU | -3.68 ± 0.24 | -3.21 ± 0.26
59 | AUUUAGCAAUAUUACGGUGU | -2.3 ± 0.095 | -1.48 ± 0.11
60 | CUGUAGCAAUAUUACGAAUG | -1.12 ± 0.081 | 0.429 ± 0.11
61 | AGGAAGCAAUAUUACGUAAG | -1.39 ± 0.11 | -2.01 ± 0.17
62 | CGUCAGCAAUAUUACGGAUA | -1.02 ± 0.079 | -0.231 ± 0.086
63 | CUCUAGCAAUAUUACGUUUA | -3.48 ± 0.25 | -3.07 ± 0.29
64 | GUGCAGCAAUAUUACGUCAC | – | -2.14 ± 0.21
65 | AGUGAGCAAUAUUACGGCAC | -1.29 ± 0.17 | -1.01 ± 0.21
66 | CUGGAGCAAUAUUACGGCAC | -3.28 ± 0.32 | -2.35 ± 0.39
67 | AUGCAGCAAUAUUACGGUCC | -1.85 ± 0.16 | -0.88 ± 0.17
68 | GUCUAGCAAUAUUACGCUUU | -0.366 ± 0.066 | -0.192 ± 0.08
69 | GAUGAGCAAUAUUACGUGAC | -3.05 ± 0.34 | -2.3 ± 0.42
70 | AUGAAGCAAUAUUACGCUUG | -0.527 ± 0.09 | 0.363 ± 0.11
71 | CGCGAGCAAUAUUACGCUUU | -3.44 ± 0.33 | -0.916 ± 0.24
72 | AUGAAGCAAUAUUACGACGA | 0.221 ± 0.18 | 0.67 ± 0.15
73 | GCACAGCAAUAUUACGCGUA | -0.987 ± 0.094 | -0.173 ± 0.086
74 | AUUUAGCAAUAUUACGUGAC | -2.58 ± 0.18 | -1.49 ± 0.36
75 | GGAAAGCAAUAUUACGGGAC | -2.53 ± 0.1 | -1.18 ± 0.11

Row | Sequence | self-splicing fitness (ln) (30 °C) | self-splicing fitness (ln) (37 °C)
76 | CGAUAGCAAUAUUACGGUCC | -1.2 ± 0.21 | -0.541 ± 0.23
77 | GCAGAGCAAUAUUACGCGUA | -2.94 ± 0.33 | -2.22 ± 0.25
78 | CCGUAGCAAUAUUACGCAGC | -3.54 ± 0.35 | -3.36 ± 0.25
79 | CAGAAGCAAUAUUACGCGGG | -2.43 ± 0.2 | -2.74 ± 0.27
80 | CGCGAGCAAUAUUACGAGUA | -3.55 ± 0.32 | -2.61 ± 0.27
81 | AUAAAGCAAUAUUACGGUAC | -1.89 ± 0.11 | -2.6 ± 0.17
82 | AAGGAGCAAUAUUACGGACU | -1.99 ± 0.16 | -0.907 ± 0.19
83 | CCGGAGCAAUAUUACGGGCG | -1.36 ± 0.11 | -1 ± 0.15
84 | GCCGAGCAAUAUUACGUAAU | -1.28 ± 0.092 | -0.203 ± 0.099
85 | UUAUAGCAAUAUUACGGCCC | – | -0.921 ± 0.39
86 | UUAUAGCAAUAUUACGGUUC | -2.77 ± 0.23 | -2.16 ± 0.25
87 | CCCCAGCAAUAUUACGCACA | -3.56 ± 0.21 | -3.66 ± 0.29
88 | UAACAGCAAUAUUACGGCGG | -0.643 ± 0.053 | -0.105 ± 0.068
89 | AAGGAGCAAUAUUACGUUCU | -2.47 ± 0.14 | -1.09 ± 0.12
90 | GGUAAGCAAUAUUACGCCCU | -1.86 ± 0.28 | -1.35 ± 0.28
91 | CUAGAGCAAUAUUACGCUCU | -2.43 ± 0.28 | -2.8 ± 0.43
92 | GGCUAGCAAUAUUACGUAGA | -0.208 ± 0.079 | -0.236 ± 0.1
93 | AUGUAGCAAUAUUACGGAUG | -3.13 ± 0.31 | -2.82 ± 0.41
94 | ACGCAGCAAUAUUACGGGUC | -4.12 ± 0.21 | -2.92 ± 0.17
95 | UCGAAGCAAUAUUACGAAUU | -3.1 ± 0.37 | -2.21 ± 0.38
96 | CCCUAGCAAUAUUACGCCAA | -3.03 ± 0.25 | -2.74 ± 0.41
97 | AAUCAGCAAUAUUACGGCAU | -0.109 ± 0.045 | 0.27 ± 0.059
